Target: human mast cell β-tryptase (human) (UniProt Q15661)
Test: sandwich ELISA, luminescence (CSPD): rabbit anti-human tryptase coated as capture, human tryptase titrated, AP-labeled G3 as detection; EC50 is of the tryptase concentration

UniProt Q15661, sequence (Q15661 31-275 limits assumed): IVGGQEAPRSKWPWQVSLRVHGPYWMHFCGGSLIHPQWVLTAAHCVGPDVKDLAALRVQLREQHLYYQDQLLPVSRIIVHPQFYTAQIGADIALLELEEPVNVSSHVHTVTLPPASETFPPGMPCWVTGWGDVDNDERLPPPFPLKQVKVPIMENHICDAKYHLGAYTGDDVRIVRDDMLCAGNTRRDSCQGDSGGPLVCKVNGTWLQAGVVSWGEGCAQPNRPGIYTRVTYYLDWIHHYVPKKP

- EC50: 0.065 µg/mL
Substance: anti-tryptase antibody G3 (sc-33676; Santa Cruz Biotechnology, Inc.), alkaline phosphatase conjugated

From patent US20140199709A1
